The koff is a measure of how fast the partners let go of each other.

The values below come from publication PMC10902388 (2024).

The test deals with MBP-16E6(4C4S) (MBP-GGGGS-TEV-16E6, construct used in SPR) (HPV16, UniProt P03126 1-158, C87S | C104S | C118S | C147S). Briefly: SPR. On the technique in general: Surface plasmon resonance follows binding to a sensor surface in real time, without labels.

B1: full-length human E6AP (C-terminal TEV-6xHis-Avi) (enzyme)
chain: MEKLHQCYWKSGEPQSDDIEASRMKRAAAKHLIERYYHQLTEGCGNEACTNEFCASCPTFLRMDNNAAAIKALELYKINAKLCDPHPSKKGASSAYLENSKGAPNNSCSEIKMNKKGARIDFKDVTYLTEEKVYEILELCREREDYSPLIRVIGRVFSSAEALVQSFRKVKQHTKEELKSLQAKDEDKDEDEKEKAACSAAAMEEDSEASSSRIGDSSQGDNNLQKLGPDDVSVDIDAIRRVYTRLLSNEKIETAFLNALVYLSPNVECDLTYHNVYSRDPNYLNLFIIVMENRNLHSPEYLEMALPLFCKAMSKLPLAAQGKLIRLWSKYNADQIRRMMETFQQLITYKVISNEFNSRNLVNDDDAIVAASKCLKMVYYANVVGGEVDTNHNEEDDEEPIPESSELTLQELLGEERRNKKGPRVDPLETELGVKTLDCRKPLIPFEEFINEPLNEVLEMDKDYTFFKVETENKFSFMTCPFILNAVTKNLGLYYDNRIRMYSERRITVLYSLVQGQQLNPYLRLKVRRDHIIDDALVRLEMIAMENPADLKKQLYVEFEGEQGVDEGGVSKEFFQLVVEEIFNPDIGMFTYDESTKLFWFNPSSFETEGQFTLIGIVLGLAIYNNCILDVHFPMVVYRKLMGKKGTFRDLGDSHPVLYQSLKDLLEYEGNVEDDMMITFQISQTDLFGNPMMYDLKENGDKIPITNENRKEFVNLYSDYILNKSVEKQFKAFRRGFHMVTNESPLKYLFRPEEIELLICGSRNLDFQALEETTEYDGGYTRDSVLIREFWEIVHSFTDEQKRLFLQFTTGTDRAPVGGLGKLKMIIAKNGPDTERLPTSHTCFNVLLLPEYSSKEKLKERLLKAITYAKGFGML
modifications: biotin on the Avi tag (BirA biotin-protein ligase) in the SPR experiments
B1 had a koff of 0.0004 s⁻¹.
